Assay results taken from the DeepSol protein solubility set.

Assay: soluble on expression in E. coli; label from the status in PepcDB or PDB records

Sequence | soluble on expression in E. coli
MKFQWIGVLVFIGIVNCLISSQKLTVKENEERLKSCGNTFLPIPSINQTGKGFGFFNDKTYTYNSKSGWLLLAGHKNRSTRVYATAFPISEYHILISSRVMLTAEHKWIMNGKPFDKNNCSGGRHLDVPRDVLDNILFWYGKKPKKADISKARMFFACDNQDLKAYPVLIELNKTSKRPWAFNGVPCLADETTSSKLGDVVHFYGYSDYDLLHHKLLIKAVKDGGICTETYYTEEVGGPLVQNVSGKATVIGLKAPGSRENCELFYDLSKLQKEICDYSGVCGYEKPTLTTEPTPVTTEKSTVSTTISTSLETTIMQASSASPTSIKPSTTTEPSPLQASSKPATEPLLRPESTRRASSSASSKPEVQTTIPTEIRTSSLPTPFLKTSTTVTTTTPEPATVDYGDDHDMIGLDDEYGDESNKGVGKIDRIVGFFVLLLVIE | not soluble
GPGSMSGTLLKEELLQLDNKRRSIMRDIEEAMTFLNSTPVGLRGSLVDSEGFPRDDCDLYAVRRARHTVNCGHNDLKSIEATIHEKLSQLHEECRGEAEEQMQRDKMKKKSEDDQRRRDEQKQVMSSKEPFVRVVDVATGSPAEEGGLICGHLIVQYGDVDAEKVLEGGFGEMARVTSSYEGQMLRVWVRSPSDDDCGGARELFIVPQRWRGEGLLGCTFEPMKLN | soluble
GLAIEGPSEAKMSCKDNKDGSCTVEYIPFTPGDYDVNITFGGRPIPGSPFRVPVKDVVDPGKVKCSGPGLGAGVRARVPQTFTVDCSQAGRAPLQVAVLGPTGVAEPVEVRDNGDGTHTVHYTPATDGPYTVAVKYADQEVPRSPFKIKVLPAHDASKVRASGPGLNASGIPASLPVEFTIDARDAGEGLLTVQILDPEGKPKKANIRDNGDGTYTVSYLPDMSGRYTITIKYGGDEIPYSPFRIHALPTGDASKCLVTVSIGGHGLGACLGPRIQIGQETVITVDAKAAGEGKVTCTVSTPDGAELDVDVVENHDGTFDIYYTAPEPGKYVITIRFGGEHIPNSPFHVLACDPLPHEEEPSEVPQLRQPYAPPRPGARPTHWATEEPVVPVEPMESMLRPFNLVIPFAVQKGELTGEVRMPSGKTARPNITDNKDGTITVRYAPTEKGLHQMGIKYDGNHIPGSPLQFYVDAINSRHVSAYGPGLSHGMVNKPATFTIVTKDAGEGGLSLAVEGPSKAEITCKDNKDGTCTVSYLPTAPGDYSIIVRFDDKHIPGSPFTAKITGDDSMRTSQLNVGTSTDVSLKITESDLSQLTASIRAPSGNEEPCLLKRLPNRHIGISFTPKEVGEHVVSVRKSGKHVTNSPFKILVGPSEIGDASKVRVWGKGLSEGHTFQVAEFIVDTRNAGYGGLGLSIEGPSKVDINCEDMEDGTCKVTYCPTEPGTYIINIKFADKHVPGSPFTVKVTGEGRMKESITRRRQAPSIATIGSTCDLNLKIPGNWFQMVSAQERLTRTFTRSSHTYTRTERTEISKTRGGETKREVRVEESTQVGGDPFPAVFGDFLGRERLGSFGSITRQQEGEASSQDMTAQVTSPSGKVEAAEIVEGEDSAYSVRFVPQEMGPHTVAVKYRGQHVPGSPFQFTVGPLGEGGAHKVRAGGTGLERGVAGVPAEFSIWTREAGAGGLSIAVEGPSKAEIAFEDRKDGSCGVSYVVQEPGDYEVSIKFNDEHIPDSPFVVPVASLSDDARRLTVTSLQETGLKVNQPASFAVQLNGARGVIDARVHTPSGAVEECYVSELDSDKHTIRFIPHENGVHSIDVKFNGAHIPGSPFKIRVGEQSQAGDPGLVSAYGPGLEGGTTGVSSEFIVNTLNAGSGALSVTIDGPSKVQLDCRECPEGHVVTYTPMAPGNYLIAIKYGGPQHIVGSPFKAKVTGPRLSGGHSLHETSTVLVETVTKSSSSRGSSYSSIPKFSSDASKVVTRGPGLSQAFVGQKNSFTVDCSKAGTNMMMVGVHGPKTPCEEVYVKHMGNRVYNVTYTVKEKGDYILIVKWGDESVPGSPFKVKVP | soluble
MPNPRRIVFGDVHGHFDALTALFEAIAPNERDGVYFVGDLIDRGPESAKVVDFVMENKYHCLLGNHEQMMLDAVGGFNFSPQLLHAWIYSGGKSTLESYEHQIPQSHVDWMRNLPLYLDLGDVWLVHAGVDPRLPIEEQGEAQFCWIRDEFHRYPYPYFANKLIITGHTITFTFANVEPGKLVSGPGWLDIDTGAYHPKSGWLTALELNNQEVYQAHIFTNEVRRLPLEDAVVPLEHHHHHH | soluble
MYRIGELAKMAEVTPDTIRYYEKQQMMEHEVRTEGGFRLYTESDLQRLKFIRHARQLGFSLESIRELLSIRIDPEHHTCQESKGIVQERLQEVEARIAELQSMQRSLQRLNDACCGTAHSSVYCSILEALEQGASGVKSGC | not soluble
AASPPTEEAVVATEPLTREDLIAYLASGCKSKEKWRIGTEHEKFGFEVNTLRPMKYDQIAELLNSIAERFEWEKVMEGDKIIGLKQGKQSISLEPGGQFELSGAPLETLHQTCAEVNSHLYQVKAVAEEMGIGFLGMGFQPKWRREDIPTMPKGRYDIMRNYMPKVGSLGLDMMLRTCTVQVNLDFSSEADMIRKFRAGLALQPIATALFANSPFTEGKPNGFLSMRSHIWTDTDKDRTGMLPFVFDDSFGFEQYVDYALDVPMYFAYRNGKYVDCTGMTFRQFLAGKLPCLPGELPTYNDWENHLTTIFPEVRLKRYMEMRGADGGPWRRLCALPAFWVGLLYDEDVLQSVLDLTADWTPAEREMLRNKVPVTGLKTPFRDGLLKHVAEDVLKLAKDGLERRGYKEVGFLNAVTEVVRTGVTPAENLLEMYNGEWGQSVDPVFQELLY | soluble
GSMADEALFLLLHNEMVSGVYKSAEQGEVENGRCITKLENMGFRVGQGLIERFTKDTARFKDELDIMKFICKDFWTTVFKKQIDNLRTNHQGIYVLQDNKFRLLTQMSAGKQYLEHASKYLAFTCGLIRGGLSNLGIKSIVTAEVSSMPACKFQVMIQKL | soluble
MRRRRVLLLLLSTTTFLRVSTAQQDEPKASVVEVQTKLGTVRGTESDHGNKRVRSFLGVPFAEPPINEHRFKKPTPARPWNGTISANTLSPACFQGRDSYDPTFWGSEMWNANTPVSEDCLYVNIWAPADAYNLTVLVWLFGGGFWYGSPSLLLYDGKELATRGNVIVVNINYRVGPFGYLFLDHEDVPGNMGMLDQQLALYWIRDHIFSFGGNPARISLVGESAGAASIVAHLIAPASKGLFQNGILQSGSLDNKWSMDSPKRAKQKSTALADLVGCNQTKITDQTACLRNTPAQLLIDNIWNVGLNFLEFPFAIVSKDQNFFKHLDGFIALREGTYSTDVNLMFGINHDEGNFWNIYNLAKFFDKQSVKPGLDRDEFHECVDTAFAVQPELVRTAAKYVYSDPKCTDPKKKTDFYTEQVNQMVGDYFFTCDSIWFAHNYPKMAGNQSNVFVYYFDQPSSANPWPKWTGVMHGYEIEYVFGVPLHNTTAGYTKEEMDVSEKVIDFWTTFANTGVPSLRKRAVGTTQKIKWDRYDGTDHTTWMNIKTGSFRMIQEIKKVECDLWRNAKDMEYSAYKEELATTSSSTLTQYTIYLILLSAFQLVFNFF | not soluble
CKRNVFNPSIPNRTQFIEDPIANLSIPSKDAAIKVTPYTFEGTSGRVYAHVERFFKFNGEYYIIFFRRYIYDTQAGTYAETAPGGNYHLIKIGKSMKYQEVAVNLNQDHPGLYARYTTIAQGNAYIKGSDIYVPINMADLSKGYYQSSSADLSKWTTNNNTALDVAGLGLTKIEVMDTSRITVGKYTYMYNGGGLQFSINRLEDRMRQAAERYETKMVFNEADFNNLHMFDIGMDTDGDNQIDYRMNPTNYIENDTDYSWIGMQTPHQVWIMPFNDGEKDYLIRFVEYCSGMYNINTLKTERDSAKTKADTALTQALALVSNPNSSKAEIAEACYQSIRNNLEYEVRNYFIGKYESVFKTSTPTAYVVPNYALTHYVIEIVDIQ | not soluble
MSANLPPAFKPIAHYIKIANENASRDPVIYYWSLLCMALGPVETTFDEISWKLLQTSIRLEKDHINDRDSLREYIDEPGGVVNNCQRAQNISMEIEQKNVSCEKLREKIAKINQKILIGKGKLSEVNEELSKKQNFEESLKQKIEIMELQINKNQSKKDKEVKSINVLIRLVAYRKLTLIKEVMDLFKVKIDGGPASEAITTKNCQCQLIDTIRGLHIPQITHIFNHSEAPTLTALQNLTHLFNVICKVLHFAPKYPILTNLQIINPIDQKSSIFTEKCWKKKADREKLIEGMSWLSKNISHLRESCGIPTMATDRILGTLEEWIRLVIRKETVFERPINSIFSPANLLIDYQIPNISYHS | not soluble
MGSDKIHHHHHHMLELTPNLNMNSKKALYVQLYEYIKKEIKDGTIVPFTKLPAKRKLAIHLQVSKNTVEAAYEQLLAEGYIESISRKGYFVCKIEQMVHVEDSEERIEEVLFQEKSYKFDFTQTGIDTNAFPFNMYRKIVNEVWQPYNNELLFLGHPQGEASLREEITNYLYESRGVRCSASQIVLGAGTQILVKLLFQLLKGSNYAVENPGYHRKMVVFEQGEEKVQMLSLDRDGICMADLENSDANVVFVTPSHQFPYGMIMPITRRTQLLQWAKKAKDRYIIEDDYDSEFRYSGRPIPALQGLDTEGKVIYMGTLSKALLPSLRMSYIVLPKNLIIKYQKEYLFYTQSVSRMDQEVIRKFLNEGYWEKHIHKMRVVYRKKRDRLVFEIEKYFSNRVEVIGEDSGLHILLQVHNGMREEELIQEAAKYSIKVYPVSTYYKDGTAPENVVLLGFAILSEEEIAKAIQLLNTAWFRKKVKKHPHT | not soluble
MGSDKIHHHHHHMPQDVMTANHVSPSNDAAAPSALDLARNQRLSLMDLLSVSEALNAAGQQAAAAELYKTWVAFNDNNPTIHLAYFNYAVMLNQLGDRAGAVQAFRACLKANPEFAPGHINLGRALEDAGLIGHAVEQWSHYAEVTKNVDAETIGHRHMTLQNMGRVLEGAGKLEEAETALLQAFELRPELPEAGQHWASLRQRQCKWPVLAPSNHISPRKMLDAMSSLTLSCYADDPMFQLAKAYRLSKTLIGARPDLSRFPRRSPKQKSGTGQRLRVGYLSSDLRDHAVGFALCEVLELHDKDSLEVFAYYCGNVRGTDSTQERIKAAVHCWRDIHGVDDATAASQIIADEIDILIDVNGYTKDARAKIFAYRPAPVIVSFCGYPGSMGSPFHQYLISDGYMIPPENEIYYSEKVLRIACDQPLDRKRPVAARPSRADVGLPEDAFVYASFNGMQKITENCFARWMTILSETPGSLLWLLTGDDDVNQRLRDLAEKSGVASERLVFAPKAQNPQHIARIGLADLFLDTFPYGAHSTASDAITSGLPVLTMYGKTFAARFCGSIVTAAGVPEMICSSPEDYVARAIGFERDRQSLLEVRESIARQRETSVLRDIPALARRLEELFWQMQGECERGETPVPDLSNLDIYYEAGAEALLENIEFEDEQSYRERYLKKLRQWHDYAPIPYDRRLWQNPDN | not soluble
MGSDKIHHHHHHMEIQNLKFEDRDEFKRKSIAAKVISVLQADIDISPMVIDGSWGTGKTEFCHKLINLMHVSDTHHLIYVDAFKADHADEPLMTVLAEVIKVLPDDDSKQSFMKKALPAVRYGLKTIAKAGVSHLLRQDIADVADDFDKQIQGAADKAIDATVESVLKDHVKADKNLKALQVALADIAAIKPIVLFIDELDRCRPNFAVDMLEIIKHTFDVDGVKFVLITNTQQLKASINHCYGLSVDAQRYLDKFVKFTIALPETVDTNAHRESIAAIEHYKNLVRSSHVLVDMKLYECGSIRTIEQIIIANRLSLREVETVVRHIEIYVTLAQSNNLQSNTIFGYKVLTILAIAIYSIQPEVALSILQKKLDAKDIGNCLGISSLSNNIQGRPDEQELICYMLGYTALHNKEHFTPTEDVDVWKQESAQYFRGAHWRTDDFASICAEAIQTLTMC | not soluble
MSLQSLIGLMRPETGKKLENLNHFIQQFEKVLIAFSGGVDSSTLAAVCSNAGVEVLAVTVLSSVSPRREMEEAKRIAEELGVRHEFLKIDLMDEDFRRNDENRCYYCKRRVLSALVEEAKKRGIEVVLEGTNASDLSDHRPGYRAVRELDGVNSPWVEFGITKEEIREIARSMGYSFHDKPSMACLASRIPFGIEIDEEKLKMVDEAEEAVIELAGVKQVRVRNYDGVAVVEVAGDELRKLLNCAEKVRDKLKKIGFRAVLIDLEGYRSGKRLFKFEGHHHHHH | soluble
